Measurements from PMC2597643 (Nature, 2008).
Values joined by “and” are separate entries in the source; they are usually repeats but may differ in a detail not shown here. Equal values may be shown once.

Legend:
Orai (in HEK-293 cells) = Orai (in HEK-293 cells) (UniProt Q9U6B8); test: native gel or EMSA
cross-linking = target: the molecule itself; test: cross-linking
[1] = target: the molecule itself; test: single-molecule photobleaching

Molecule: Orai (in HEK-293 cells) (from UniProt Q9U6B8 1-351) (natural protein)
- stoichiometry N (Orai (in HEK-293 cells)): 2

B1: HA-tagged Orai (natural protein)
chain: MSVWTTANNSGLETPTKSPITSSVPRAARSSAVITTGNHQQHHFQHVVAAAVAAATSVATGHQFQQQFPLHAHPHPQHHSNSPTGSGSNSNNSAGFQRTSISNSLLQFPPPPPPSSQNQAKPRGHHRTASSSMSQSGEDLHSPTYLSWRKLQLSRAKLKASSKTSALLSGFAMVAMVEVQLDHDTNVPPGMLIAFAICTTLLVAVHMLALMISTCILPNIETVCNLHSISLVHESPHERLHWYIETAWAFSTLLGLILFLLEIAILCWVKFYDLSPPAAWSACVVLIPVMIIFMAFAIHFYRSLVSHKYEVTVSGIRELEMLKEQMEQDHLEHHNNIRNNGMNYGASGDIV
- stoichiometry N (cross-linking): 2

B2: GFP-Flag-Orai (in Xenopus oocytes) (natural protein)
chain: B1 chain
- stoichiometry N [1]: 2 and 4
